Source: patent publication US20040116336A1, “Peptide derivatives” (priority 2002, published 2004)

What was measured:
[1] = target: APJ (orphan G protein-coupled receptor protein); experiment: cell-based or functional assay
[2] = target: APJ (orphan G protein-coupled receptor protein); experiment: radioligand competition, compound of Ref. Ex. 2 as labelled ligand, CHO-A10 membrane fraction
[3] = target: APJ (orphan G protein-coupled receptor protein); experiment: radioligand competition, 125I-labelled compound of Ref. Ex. 1 (100 pM), CHO-A10 membrane fraction

Sequence of APJ (orphan G protein-coupled receptor protein) (P35414 whole entry): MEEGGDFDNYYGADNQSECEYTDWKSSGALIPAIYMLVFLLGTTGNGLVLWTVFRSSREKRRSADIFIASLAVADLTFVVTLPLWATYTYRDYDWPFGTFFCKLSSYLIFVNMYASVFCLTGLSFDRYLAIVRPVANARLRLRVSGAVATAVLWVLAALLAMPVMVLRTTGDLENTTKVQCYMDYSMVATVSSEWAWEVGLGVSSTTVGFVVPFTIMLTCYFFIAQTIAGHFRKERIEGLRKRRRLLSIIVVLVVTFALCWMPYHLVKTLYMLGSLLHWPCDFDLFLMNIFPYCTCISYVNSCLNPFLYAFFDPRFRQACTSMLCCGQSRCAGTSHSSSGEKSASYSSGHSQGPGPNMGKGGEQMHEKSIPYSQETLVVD

Substance | EC50, inhibition of forskolin-stimulated cAMP production (CHO-A10 clone 6 cells) [1] [nM] | IC50 [2] [nM] | IC50 [3] [nM]
Arg-Pro-Arg-Leu-Ser-Ala-Arg-Gly-Pro-Ala-Pro-Phe(Cl) (peptide) | 0.37 | 0.064 | 0.37
Arg-Arg-Gln-Arg-Pro-Arg-Leu-Ser-Ala-Arg-Gly-Pro-Met-Pro-Phe(Cl)-NH2 (peptide) | 0.32 | 0.18 | 0.32
Arg-Pro-Arg-Leu-Ser-Dap(Ac)-Arg-Gly-Pro-Cha-Pro-Phe(Cl) (peptide) | 0.69 | 0.11 | 0.69
Arg-Arg-Gln-Arg-Pro-Arg-Leu-Ser-Ala-Arg-Gly-Pro-Met-Pro-Phe(Cl) (peptide) | – | 0.1 | 0.2
Arg-Pro-Arg-Leu-Ser-Dap-Arg-Gly-Pro-Cha-Pro-Phe(Cl) (peptide) | 0.52 | 0.26 | 0.52
Arg-Pro-Arg-Leu-Ser-His-Lys-Gly-Pro-Cha-Pro-Phe(Cl) (peptide) | 0.41 | – | 1.4
Arg-Pro-Arg-Leu-Ser-His-Lys-Gly-Pro-Met-Phe(Cl) (peptide) | 0.16 | 0.17 | –
pGlu-Arg-Pro-Arg-Leu-Ser-His-Lys-Gly-Pro-Met-Pro-Nal(2) (peptide) | 0.4 | – | –
Arg-Pro-Arg-Leu-Ser-Ala-Arg-Gly-Pro-Met-Pro-Phe(Cl) (peptide) | 0.32 | 0.036 | 0.91
Arg-Pro-Arg-Leu-Ser-Ala-Arg-Gly-Gly-Met-Pro-Phe(Cl) (peptide) | 0.19 | 0.29 | –
Arg-Pro-Arg-Leu-Ser-Ala-Arg-Gly-N-MeAla-Met-Pro-Phe(Cl) (peptide) | 0.27 | 0.09 | 0.27
pGlu-Arg-Pro-Arg-Leu-Ser-His-Lys-Gly-Pro-Met-Phe(Cl) (peptide) | 0.43 | 0.48 | –
Arg-Pro-Arg-Leu-Phe-His-Lys-Gly-Pro-Met-Pro-Phe(Cl) (peptide) | 0.38 | 0.066 | 8
